The nature of the data set: protein stability index of a GFP-peptide fusion (GPS, HEK-293T) (PSI 1-6); higher = more stable. As to conditions: c terminus: a fixed tail appended.

± gives the standard deviation.
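Further: 24-mer peptide tiles fused after GFP, lentivirally expressed, FACS-sorted into six equal bins by GFP/DsRed ratio, decoded by Illumina sequencing, PSI is the read-weighted mean bin number.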

As to EDEDKSEPEQTGADAAEDEEVDVT [RBBP5], the protein stability index runs as follows: (treatment: DMSO) 5.66 ± 0.28; (treatment: MLN4924 1 uM, 8 h) 5.73 ± 0.31.

For EDSDVEMVEDDSRKEMTAACTPRR [MLH1], the protein stability index by setting is: (treatment: DMSO) 5.54 ± 0.3; (treatment: MLN4924 1 uM, 8 h) 5.67 ± 0.18.

For the sequence EDVRIFFYQSPYDSEQVPQALRRL [NCF4], the protein stability index (treatment: DMSO) came out at 2.79 ± 0.31 and the protein stability index (treatment: MLN4924 1 uM, 8 h) was 2.98 ± 0.4.

For the sequence EDWLSHALSRKKSQGLAREQHAGT [FBF1], the protein stability index turned out to be 3.9 ± 0.23 (treatment: DMSO) and 4.04 ± 0.14 (treatment: MLN4924 1 uM, 8 h).

Sequence EEDKRRKGEEVTPISAIRHEGKTD [EPB41L3] returned a protein stability index (treatment: DMSO) of 5.59 ± 0.23 and a protein stability index (treatment: MLN4924 1 uM, 8 h) of 5.66 ± 0.13.

As to EEIRGGGLLKYCSLLVHGFKPACM [TENT5D], the protein stability index reads like this: (treatment: DMSO) 3.11 ± 0.5; (treatment: MLN4924 1 uM, 8 h) 2.35 ± 0.67.

EELAPVGTAHIPPTMHLESPALQV [ZNF449]: the protein stability index amounted to 4.18 ± 0.27 (treatment: DMSO) and 4.33 ± 0.091 (treatment: MLN4924 1 uM, 8 h).

EEMWTFRGKIHAFRGQILGFWEEE [CCDC70] gave a protein stability index (treatment: DMSO) of 2.15 ± 0.41 and a protein stability index (treatment: MLN4924 1 uM, 8 h) of 2.35 ± 0.26.

EERVRVLQGVRLSENVVNRMKEPS [CHCHD6] gave a protein stability index (treatment: DMSO) of 4.6 ± 0.51 and a protein stability index (treatment: MLN4924 1 uM, 8 h) of 4.64 ± 0.19.

For the sequence EFISSTKRPYAKELETVDFKDKLE [SERPINB5], the protein stability index is, setting by setting: (treatment: DMSO) 3.98 ± 0.24; (treatment: MLN4924 1 uM, 8 h) 4.32 ± 0.13.

In the case of EFPEARIFEETLNILIYETPRGPD [KCTD13], the protein stability index reads like this: (treatment: DMSO) 2.48 ± 0.15; (treatment: MLN4924 1 uM, 8 h) 2.5 ± 0.44.

Turning to EGAQRDRFPGRKQPGVHEEPVLKK [C22orf31], the protein stability index reads like this: (treatment: DMSO) 5.15 ± 0.3; (treatment: MLN4924 1 uM, 8 h) 5.17 ± 0.31.

For EGTNGQLDYSFGDHTSEAVRNLFG [PCDHGC5], the protein stability index by setting is: (treatment: DMSO) 3.89 ± 0.13; (treatment: MLN4924 1 uM, 8 h) 3.9 ± 0.32.

Consider EGVISVSEDRTVRVWLKRDSGQYW [WDFY2], for which the protein stability index was 2.17 ± 0.2 (treatment: DMSO) and 2.3 ± 0.12 (treatment: MLN4924 1 uM, 8 h).

Turning to EHQYRLPPMGKAFQELAGKELCAM [SPDEF], the protein stability index came to 3.19 ± 0.26 (treatment: DMSO) and 3.23 ± 0.098 (treatment: MLN4924 1 uM, 8 h).

In the case of EIANEDRKHALERFEQEAVAVDSN [CCDC89], the protein stability index is, setting by setting: (treatment: DMSO) 5.01 ± 0.42; (treatment: MLN4924 1 uM, 8 h) 5.31 ± 0.16.

In turn, EIELQAQHNLRYSLENTLTESEAR [KRT33B] displayed a protein stability index (treatment: DMSO) of 4.7 ± 0.2 and a protein stability index (treatment: MLN4924 1 uM, 8 h) of 4.48 ± 0.18.

EIIRKQVSATKAEAEKDGVKVPTT [UBE2R2] yielded a protein stability index (treatment: DMSO) of 4.84 ± 0.37 and a protein stability index (treatment: MLN4924 1 uM, 8 h) of 4.7 ± 0.25.

For the sequence EILSESVVPDVRSVVTTARMQVLK [SMARCE1], the protein stability index worked out at 2.87 ± 0.56 (treatment: DMSO) and 2.54 ± 0.38 (treatment: MLN4924 1 uM, 8 h).

Take EINPPPHTMEEEEDDDWGEDTTEE [EIF5]: the protein stability index (treatment: DMSO) worked out at 5.52 ± 0.28 and the protein stability index (treatment: MLN4924 1 uM, 8 h) was 5.34 ± 0.48.

Regarding EKKGLHEKALQVLVDQSKKANSPL [VPS39], the protein stability index came to 4.65 ± 0.21 (treatment: DMSO) and 4.67 ± 0.18 (treatment: MLN4924 1 uM, 8 h).

EKLLERQGQAKTPDSMFLAMLAVV [CDK11A]: the protein stability index by setting is: (treatment: DMSO) 1.95 ± 0.21; (treatment: MLN4924 1 uM, 8 h) 2.2 ± 0.55.

For the sequence EKMALDPYTELRKQPLRKYVTPSD [EFHC1], the protein stability index is, setting by setting: (treatment: DMSO) 4.03 ± 0.29; (treatment: MLN4924 1 uM, 8 h) 3.95 ± 0.064.

As for ELDEPQHEMVAHRHRQEVLCKEMV [ZSCAN9], the protein stability index reads like this: (treatment: DMSO) 4.72 ± 0.24; (treatment: MLN4924 1 uM, 8 h) 4.76 ± 0.26.

Turning to ELKTKLTKLEAEIVTLRHVLAAKE [TPD52L3], the protein stability index reads like this: (treatment: DMSO) 3.44 ± 0.27; (treatment: MLN4924 1 uM, 8 h) 3.64 ± 0.23.

Regarding ELNGHTQKITAIITFPSLESCEEK [WDR41], the protein stability index reads like this: (treatment: DMSO) 3.1 ± 0.29; (treatment: MLN4924 1 uM, 8 h) 3.42 ± 0.42.

With ELPNIKREISETEAKALLKERQKK [TFE3], the protein stability index is, setting by setting: (treatment: DMSO) 3.26 ± 0.7; (treatment: MLN4924 1 uM, 8 h) 4.19 ± 0.57.

ELSRIVLMRHGMEKIWRPNRVFSL [RAB40C]: the protein stability index by setting is: (treatment: DMSO) 2.37 ± 0.37; (treatment: MLN4924 1 uM, 8 h) 2.63 ± 0.41.

EMFTKPVVILPCQHNLCRKCASDI [TRIM55]: the protein stability index was determined as 2.96 ± 0.3 (treatment: DMSO) and 2.83 ± 0.47 (treatment: MLN4924 1 uM, 8 h).

As for ENKDHSLERGRASLIFSLKNEVGG [TPH1], the protein stability index by setting is: (treatment: DMSO) 4.09 ± 0.18; (treatment: MLN4924 1 uM, 8 h) 3.82 ± 0.38.

Take EPDAADGPYDPNSVRISFAKGWGP [SMAD6]: the protein stability index reads like this: (treatment: DMSO) 4.17 ± 0.13; (treatment: MLN4924 1 uM, 8 h) 4.19 ± 0.17.

Consider EPEEEILGSDDEEQEDPADYCKGG [SRPK2], for which the protein stability index was 5.54 ± 0.29 (treatment: DMSO) and 5.55 ± 0.24 (treatment: MLN4924 1 uM, 8 h).

EPEMAVFLQNAKTLLKKISEASKA [TRIM55] registered a protein stability index (treatment: DMSO) of 2.46 ± 0.3 and a protein stability index (treatment: MLN4924 1 uM, 8 h) of 2.25 ± 0.22.

Turning to EPLYNWQATKASLKERFAFLFNSE [BTBD1], the protein stability index reads like this: (treatment: DMSO) 2.97 ± 0.22; (treatment: MLN4924 1 uM, 8 h) 2.78 ± 0.37.

With EPTEVEEVVPALEPTETLLSEKEI [BCL2L13], the protein stability index turned out to be 5.5 ± 0.35 (treatment: DMSO) and 5.71 ± 0.12 (treatment: MLN4924 1 uM, 8 h).

EPYARLPPHKHVARPTEVLAGTQL [TRIB3]: the protein stability index (treatment: DMSO) worked out at 4.05 ± 0.1 and the protein stability index (treatment: MLN4924 1 uM, 8 h) stood at 3.88 ± 0.28.

(Values after the supplement of paper PMC10567573.)
